Measured values as given in patent publication US20100323974A1.

Assays:
[1] = target: poly(ADP-ribose) polymerase I (PARP-1), native, co-purified from HeLa cells (UniProt P09874); assay: cell-based or functional assay
[2] = target: mutated e-mH2A1.1 nucleosome complex (HXTX motif at positions 213-216 converted to AAAA) (human) (UniProt O75367); assay: tagged nucleosome complexes isolated at 300 mM NaCl, silver stained SDS-PAGE, PARP-1 relative to histone H1
Chain of mutated e-mH2A1.1 nucleosome complex (HXTX motif at positions 213-216 converted to AAAA) (human) (O75367 whole entry, change not shown, one chain of several): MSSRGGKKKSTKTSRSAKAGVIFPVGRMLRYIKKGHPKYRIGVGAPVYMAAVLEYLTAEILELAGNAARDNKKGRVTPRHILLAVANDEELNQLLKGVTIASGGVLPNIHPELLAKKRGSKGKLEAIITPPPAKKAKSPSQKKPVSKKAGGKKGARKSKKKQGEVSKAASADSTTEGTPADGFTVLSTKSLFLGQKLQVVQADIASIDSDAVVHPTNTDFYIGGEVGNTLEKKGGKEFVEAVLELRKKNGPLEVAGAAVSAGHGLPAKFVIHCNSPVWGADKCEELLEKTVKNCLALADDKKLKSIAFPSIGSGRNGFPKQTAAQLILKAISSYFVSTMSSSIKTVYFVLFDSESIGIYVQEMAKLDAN

Chain of poly(ADP-ribose) polymerase I (PARP-1), native, co-purified from HeLa cells (P09874 2-1014 limits assumed): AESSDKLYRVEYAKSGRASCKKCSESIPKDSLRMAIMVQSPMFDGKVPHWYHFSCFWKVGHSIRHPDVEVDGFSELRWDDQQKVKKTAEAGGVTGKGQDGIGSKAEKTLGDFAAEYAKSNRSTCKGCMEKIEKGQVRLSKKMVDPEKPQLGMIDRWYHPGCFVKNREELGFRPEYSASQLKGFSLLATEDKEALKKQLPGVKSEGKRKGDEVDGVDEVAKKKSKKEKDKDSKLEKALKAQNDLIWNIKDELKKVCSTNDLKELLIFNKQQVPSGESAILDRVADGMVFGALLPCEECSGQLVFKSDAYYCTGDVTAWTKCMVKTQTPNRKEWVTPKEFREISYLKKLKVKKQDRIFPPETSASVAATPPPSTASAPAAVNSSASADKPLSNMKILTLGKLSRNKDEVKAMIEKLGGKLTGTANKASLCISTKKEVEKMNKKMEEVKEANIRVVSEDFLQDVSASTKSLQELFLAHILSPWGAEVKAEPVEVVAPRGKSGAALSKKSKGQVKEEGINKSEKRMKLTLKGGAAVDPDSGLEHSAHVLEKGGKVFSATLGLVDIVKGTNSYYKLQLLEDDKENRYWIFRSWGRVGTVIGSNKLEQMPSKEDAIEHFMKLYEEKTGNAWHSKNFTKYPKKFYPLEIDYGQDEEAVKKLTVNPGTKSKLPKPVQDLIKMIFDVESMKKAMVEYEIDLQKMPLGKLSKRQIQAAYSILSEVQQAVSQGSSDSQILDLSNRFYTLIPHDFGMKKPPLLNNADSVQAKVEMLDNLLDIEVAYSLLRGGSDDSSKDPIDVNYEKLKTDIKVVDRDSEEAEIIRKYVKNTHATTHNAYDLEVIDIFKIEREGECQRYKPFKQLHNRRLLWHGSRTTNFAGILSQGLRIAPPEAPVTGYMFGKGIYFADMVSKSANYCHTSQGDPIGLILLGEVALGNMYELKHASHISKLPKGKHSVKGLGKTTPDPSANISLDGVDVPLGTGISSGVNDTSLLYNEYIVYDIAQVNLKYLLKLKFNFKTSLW

| Substance | extent of PARP-1 labeling during the first minute, against PARP-1 associated with the wild type e-mH2A1.1 nucleosomes [1] | amount of PARP-1 associated, percent of that associated with the WT emH2A1.1 nucleosome complex [2] |
| --- | --- | --- |
| mutated e-mH2A1.1 nucleosome complex (HXTX motif at positions 213-216 converted to AAAA) (from UniProt O75367 1-369) | 37 times |  |
| poly(ADP-ribose) polymerase I (PARP-1), native, co-purified from HeLa cells (from UniProt P09874 2-1014) |  | 8 to 10% |
